As usually defined, the stoichiometry N is a count of units in the complex or per binding partner. As a reminder, the Kd is the equilibrium constant for the complex coming apart. Higher therefore signals a looser complex.

In experiment [1] the target is Fam (endogenous, MDCKII cells) (dog (endogenous in MDCKII)). Nature of the experiment: co-IP.
Experiment [2] has as its target GST-AF-6 (1130–1612 aa). Nature of the experiment: pull-down.

In the case of “AF-6 (endogenous, MDCKII cells) (natural protein)”, in experiment [1], the stoichiometry N came to 0.1 AF-6 per Fam.

“MBP-Fam (1476–1918 aa) (domain or fragment)”: in experiment [2], the Kd turned out to be 810 nM.

The values above are taken from article PMC2132865.
